# Biological target: T1, human ERBB2 receptor (human, UniProt P04626 23-1255)
# T1 construct: whole, on cells; Presented on human breast carcinoma cell lines with different ERBB2 levels; also called HER2; Neu-Erb
# Experiment: flow cytometry on SK-BR-3 cells (FIG. 7 legend)
# Procedure: Humanized heavy SEQ NO.1 and light chains SEQ. NO.2 or SEQ. […] The cells were cultured in Erlenmeyer flask in incubator at 37° C., 5% CO₂ on a shaker at 120 rpm for at least 14 days. The surnatants were purified through standard protein A resins. […] NO.1 and SEQ.
row,Binder,binding result
1,"humanized W6/800 antibody huW6/800 (antibody, V domains shown, also called humanized antibody) VH: QVQLVQSGAEVKKPGASVKISCKASGYTFSNYWIEWVRQAPGQGLEWMGEILPGSGSTNYNEKLKGRVTSTRDTSISTAYMELSRLRSDDTGVYYCARGGGNYPYYFDYWGQGTTVTVSS VL: DIQMTQSPSTLSASVGDRVTITCKASQDVGTAVAWYQQKPGKAPKLLIYWASTRHTGVPSRFSGSGSGTEFTLTISSLQPDDFADYFCQQYSSYRTFGAGTKLEIK",binds
2,"mAb W6/800 (antibody, V domains shown, Murine IgG2a purified from hybridoma cultures; they are assigned here by order and by likeness to the humanized VH and VL; also called murine W6/800; parental murine antibody) VH: QVQLQQSGAELMKPGASVKISCKATGYTFSNYWIEWVKQRPGHGLEWIGEILPGSGSTNYNEKLKGKATFTADTSSNTAYMQLSSLTSEDSGVYYCARGGGNYPYYFDYWGQGTTVTVSS VL: IELMTQSHKFMSTSVGDRVSITCKASQDVGTAVAWYQQKPGQSPKLLIYWASTRHTGVPDRFTGSGSGTDFTLTISNVQSEDLADYFCQQYSSYRTFGAGTKLE",binds
